# Test results published in the supplement of paper PMC9732359.
# ± gives the uncertainty stated by the source.
# Assay: protein stability index of a GFP-peptide fusion (yeast GPS) (PSI 1-4); higher = more stable; sorted into four equal gates, so the index is relative within each strain
# How it was run: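 Mid-log yeast cultures in leucine-free medium, carrying a pooled plasmid library, were sorted into four equal gates by their GFP/Cherry fluorescence ratio. Each plasmid expressed Cherry along with GFP fused upstream of a tiled 17-residue yeast protein peptide. Plasmids recovered from each gate were PCR-amplified and Illumina-sequenced, with reads assigned to strains by barcodes. The protein stability index was obtained by summing each gate's read frequency weighted by its gate number.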
Sequence,protein stability index (doa10∆),protein stability index (pdr5∆),protein stability index (san1∆),protein stability index (ubr1∆)
IQSKAVEQGYEDAFNFW [YCG1],3.37 ± 0.13,3.33 ± 0.17,3.57 ± 0.12,–
IQYVTYLLTQQQIWKSP [SOH1],2.16 ± 0.056,2.07 ± 0.057,1.71 ± 0.074,2.09 ± 0.047
IRAELLNDRKVLFAAYK [RPB11],2.18 ± 0.081,2.19 ± 0.063,2.45 ± 0.098,2.23 ± 0.061
IRGILMASGSTTFTKVA [PRP8],2.76 ± 0.063,2.02 ± 0.1,2.02 ± 0.16,2.15 ± 0.088
IRIYFTEKDDNKTNNED [NUT1],2.82 ± 0.1,2.95 ± 0.071,2.84 ± 0.13,2.87 ± 0.074
IRKGANDGEVYQKIFKP [PRE9],2.06 ± 0.098,1.81 ± 0.068,–,1.83 ± 0.059
IRKGPAPLNLEIPAYEF [RIP1],2.76 ± 0.062,2.58 ± 0.083,2.67 ± 0.06,2.73 ± 0.062
IRKLTLRDTFIELDQVL [RPO21],2.31 ± 0.12,2.89 ± 0.079,2.7 ± 0.074,2.23 ± 0.11
IRKYGLNICRQCFREKA [RPS29A],1.59 ± 0.067,1.67 ± 0.045,1.32 ± 0.11,1.73 ± 0.065
IRLANESSELNKDSIEE [CSN12],3.22 ± 0.084,3.43 ± 0.079,3.34 ± 0.065,3.37 ± 0.083
IRLSKILEDDFAVALKN [CDC53],3.19 ± 0.15,3.16 ± 0.14,3.04 ± 0.072,3.04 ± 0.08
IRPTELRLPFSAAMSID [PRP8],1.93 ± 0.049,1.98 ± 0.037,1.78 ± 0.057,2.24 ± 0.037
IRSSRSRGIVIGSGAMS [RPP1],2.63 ± 0.085,2.77 ± 0.09,2.63 ± 0.091,2.46 ± 0.073
ISHDDLQAVAVAVSTKK [FAS2],1.47 ± 0.29,1.48 ± 0.099,1.19 ± 0.12,1.32 ± 0.23
ISHIEKRIESLQKDLQR [SMC1],1.86 ± 0.065,2.48 ± 0.077,1.75 ± 0.09,1.85 ± 0.066
ISICMILCGIQEYLNPV [YDL116W/NUP84],1.97 ± 0.1,1.61 ± 0.11,–,1.87 ± 0.14
ISKKIIGMSLLMRTFLY [SIR3],1.79 ± 0.081,2.31 ± 0.065,1.99 ± 0.083,1.75 ± 0.077
ISKSLTFSQESGLMVIL [RRI2],2.23 ± 0.095,2.33 ± 0.11,2.29 ± 0.094,2.27 ± 0.072
ISLPKGKGIKLSIAEER [RPS4A],2.03 ± 0.15,2.18 ± 0.28,2.62 ± 0.081,2.47 ± 0.077
ISNYNTKYTDDMATGSN [SRB8],3.04 ± 0.1,2.52 ± 0.11,3.21 ± 0.058,2.94 ± 0.085
ISPKGGRRISENGQRDL [RPS19A],–,2.81 ± 0.2,3.19 ± 0.13,2.86 ± 0.11
ISPKIWCAGAGTAADTE [PUP1],2.29 ± 0.1,2.36 ± 0.088,2.42 ± 0.12,2.24 ± 0.08
ISQKLHDSILHSRILPK [RRP43],2.57 ± 0.046,2.58 ± 0.033,2.62 ± 0.037,2.8 ± 0.038
ISQLYSDAVMAEHSQNK [YJL041W/NSP1],2.99 ± 0.079,2.83 ± 0.081,2.75 ± 0.096,2.81 ± 0.088
ISSSTQCLRFLKETVIP [POP6],1.52 ± 0.074,1.87 ± 0.11,1.26 ± 0.22,2.27 ± 0.073
ISTYISTDELVGSPLTV [POP8],1.49 ± 0.13,2.6 ± 0.1,2.27 ± 0.16,2.2 ± 0.081

Sequence,protein stability index (doa10∆),protein stability index (pdr5∆),protein stability index (san1∆),protein stability index (ubr1∆)
ISVIETIRVVTENKIFV [RPN5],1.6 ± 0.14,1.82 ± 0.1,1.9 ± 0.27,2.03 ± 0.093
ISYKKGAASNRTKFVRS [RPL36A],3.06 ± 0.1,3.2 ± 0.1,3.13 ± 0.11,3.26 ± 0.22
ITATLVGTVRCEEEKKT [CSL4],1.54 ± 0.14,1.9 ± 0.25,1.67 ± 0.16,1.58 ± 0.079
ITDKGTVDGRLYQLFKT [YJL039C/NUP192],3.19 ± 0.11,3.46 ± 0.097,3.3 ± 0.069,3.46 ± 0.094
ITDKTIESIVNLAPKLR [GRR1],2.81 ± 0.081,2.27 ± 0.059,1.83 ± 0.086,2.76 ± 0.037
ITHPGKMELVYVSDSDD [SIR4],3.24 ± 0.077,3.34 ± 0.075,3.31 ± 0.085,3.25 ± 0.073
ITHQLNNKFANKIIPNV [RPC25],2.72 ± 0.069,3.03 ± 0.08,2.93 ± 0.053,3.01 ± 0.082
ITKFALFAESHDVLQKL [YML103C/NUP188],2.34 ± 0.1,1.78 ± 0.2,2.02 ± 0.13,2.45 ± 0.075
ITLVEPEILRFKVYEPL [RPS16A],–,3.25 ± 0.21,2.54 ± 0.22,2.75 ± 0.074
ITNTDETITTKRVPNPN [SWP82],3.09 ± 0.077,3.25 ± 0.098,3.13 ± 0.078,3.21 ± 0.082
ITSFDQDVDDAHAIDQM [POP8],1.55 ± 0.064,1.23 ± 0.061,1.15 ± 0.093,1.08 ± 0.11
ITSFGFGQKGGQAIVVH [FAS2],1.28 ± 0.074,1.44 ± 0.036,1.52 ± 0.088,1.69 ± 0.046
ITSINVENDTFIERNFT [FAS2],3.01 ± 0.089,2.68 ± 0.081,3.17 ± 0.072,3.19 ± 0.05
ITVTAKQQPTMQANKLD [SWI3],3.19 ± 0.096,3.15 ± 0.071,2.82 ± 0.07,3.01 ± 0.055
ITYGIIKVPTYIRKLIS [SRB8],1.32 ± 0.074,1.44 ± 0.091,1.42 ± 0.2,1.36 ± 0.085
IVEEDLEPFEASKETAE [FAS2],3.42 ± 0.18,3.21 ± 0.11,3.1 ± 0.087,3.25 ± 0.089
IVEINNVSNTFNKTTNI [YJL041W/NSP1],2.87 ± 0.048,2.9 ± 0.05,2.71 ± 0.046,2.86 ± 0.038
IVFDNTDKSNSPIGFTN [SMC2],3.1 ± 0.049,3.15 ± 0.063,3.15 ± 0.052,2.96 ± 0.068
IVFHNEFSEHTFVERLP [DIS3],2.43 ± 0.05,2.28 ± 0.063,2.64 ± 0.058,2.68 ± 0.053
IVNNDLPTTVVSNPGDN [MED2],2.84 ± 0.051,2.96 ± 0.052,2.82 ± 0.052,3.02 ± 0.033
IVPSMTHLEIEPFTILG [RET1],1.49 ± 0.037,2.05 ± 0.055,2.29 ± 0.1,2.27 ± 0.035
IVRPAKGVATTREKVLE [RRP46],3.43 ± 0.16,2.83 ± 0.1,2.21 ± 0.12,3.09 ± 0.082
IVTALLESDVNIALVSK [SRP54],3.22 ± 0.18,3.19 ± 0.088,3.24 ± 0.12,3.35 ± 0.12
IWVGEWKEVLAHNPELE [RPO31],3 ± 0.087,2.36 ± 0.078,2.74 ± 0.072,2.74 ± 0.053
IYAKYGAKGSTLIVVPF [FAS2],2.4 ± 0.072,2.72 ± 0.073,2.34 ± 0.11,2.13 ± 0.05
IYATFLNESDCLEACSF [YDL116W/NUP84],2.56 ± 0.091,2.85 ± 0.087,2.6 ± 0.13,2.59 ± 0.057

Sequence,protein stability index (doa10∆),protein stability index (pdr5∆),protein stability index (san1∆),protein stability index (ubr1∆)
KAAFEDLKSKGLIPADA [FAS1],3 ± 0.09,3.29 ± 0.1,3.14 ± 0.073,3.35 ± 0.066
KADAQREKALNEEAEAR [RPL19A],3.22 ± 0.083,3.45 ± 0.2,3.23 ± 0.081,3.33 ± 0.098
KAELEKQKSWVPSYIHV [YIL149C/MLP2],2.09 ± 0.052,2.33 ± 0.041,2.15 ± 0.077,2.31 ± 0.035
KAISVGANTSAAQTLLQ [PRE9],2.74 ± 0.054,2.92 ± 0.052,2.77 ± 0.053,2.92 ± 0.046
KAKVDDLVLGKPLADLR [YLR335W/NUP2],3.23 ± 0.25,3.56 ± 0.21,3.39 ± 0.072,3.35 ± 0.09
KALRRKIYINLALGSHN [SSN2],3.05 ± 0.21,2.76 ± 0.15,2.4 ± 0.11,3.48 ± 0.15
KAPLQPNSERETDHANT [IRR1],2.6 ± 0.083,2.98 ± 0.062,2.59 ± 0.068,2.88 ± 0.047
KAPTKLDDPEAVSKDPL [DIS3],3.35 ± 0.089,3.45 ± 0.12,3.17 ± 0.058,3.26 ± 0.068
KARSPGIAKPNAIQTEV [SIR4],3.36 ± 0.067,3.35 ± 0.092,3.18 ± 0.075,3.22 ± 0.066
KASKEIKKVICGAWEPA [SIR3],2.15 ± 0.25,–,–,2.67 ± 0.11
KASVTIVFDNTDKSNSP [SMC2],2.99 ± 0.045,3.02 ± 0.044,2.9 ± 0.042,3.156 ± 0.028
KAVKLRKSYKNQIADLS [ROX3],2.74 ± 0.1,2.85 ± 0.07,2.77 ± 0.095,2.95 ± 0.037
KCLNYRNVNWIERLTKR [ITC1],2.91 ± 0.084,3.07 ± 0.052,2.96 ± 0.05,3.09 ± 0.038
KCLVEKSICFENCLNND [SWI1],1.81 ± 0.097,2.67 ± 0.057,2.69 ± 0.064,2.61 ± 0.078
KCQELVTNIRRIIQDNI [RRP46],2.5 ± 0.15,2.81 ± 0.1,3.08 ± 0.25,1.94 ± 0.11
KCSATNRIIKADDHASV [RPS21A],2.92 ± 0.053,2.96 ± 0.053,3.13 ± 0.049,3.11 ± 0.039
KDAISFIKEIHKSIELI [YCS4],2 ± 0.066,2.81 ± 0.065,3.17 ± 0.055,2.69 ± 0.037
KDAQKKDIEKLTNEISD [YIL149C/MLP2],2.54 ± 0.086,2.98 ± 0.07,2.65 ± 0.061,2.49 ± 0.078
KDENNTANDQYSSILGN [YCG1],3.02 ± 0.047,3.2 ± 0.046,3.01 ± 0.032,3.08 ± 0.034
KDEYLAQLDGRIGVLQA [NSL1],2.08 ± 0.064,2.4 ± 0.046,2.41 ± 0.074,2.99 ± 0.046
KDFIENVNNRFDNFLTE [BRN1],3.06 ± 0.086,3.04 ± 0.093,3.2 ± 0.068,2.88 ± 0.066
KDFVTMAIEIINDIRDD [YCG1],1.85 ± 0.12,1.7 ± 0.16,2.17 ± 0.2,2.42 ± 0.19
KDGEDIIFNYVPGPGTK [CSL4],2.56 ± 0.17,2.53 ± 0.11,2.23 ± 0.14,2.52 ± 0.29
KDGGDKPPSSAFNFSFN [YAR002W/NUP60],3.18 ± 0.066,3.22 ± 0.054,3.17 ± 0.052,3.29 ± 0.061
KDGLKLVGSWKKDRATG [RPO21],3.58 ± 0.2,–,3.33 ± 0.15,–
KDHLLGRLASTIAKQVL [RPL16B],1.66 ± 0.085,1.57 ± 0.092,1.25 ± 0.14,1.3 ± 0.066
